Test results published in patent EP4640235A1 (Toray Industries, Inc., dated 2025).
Residue numbers refer to the chain shown, from its start.

B1: anti-CAPRIN-1 antibody (e) (antibody, V domains shown)
VH: AVTLDESGGGLQTPGGALSLVCKASGFTFSGYDMLWVRQAPGKGLEWVAGIGSTGGGTDYGAAVKGRATISRDNGQSTVRLQLNNLRAEDTATYYCAKVAGGCNSGYCRDSPGSIDAWGHGTEVIVS
VL: AVTQQPASVSANPGETVKITCSGGGSRNYYGWYQQKSPGSVPVTVIYYDDQRPSNIPSRFSGALSGSTSTLTITGVQADDEAVYFCGSADSNTYEGSFGAGTTLTVL
B2: anti-CAPRIN-1 antibody (i) (antibody, V domains shown)
VH: GAELVRSGASVKMSCKASGYSFTDYNMYWVKQTPGQGLEWIGYIYPGNGGTNYNQKFKGKATLTADTSSSTAYMQISSLTSEDSAVYFCARDYDDGGYAMDYWGQGTTVTVSS
VL: DIQMTQSPASLSASVGETVTITCRASGNIHNYLTWYQQKQGKSPQLLVYNAKTLADGVPSRFSGSGSGTQYSLKINRLQPEDFGSYYCQHFWNIPWTFGGGTKLNSR
B3: anti-CAPRIN-1 antibody (j) (antibody, V domains shown)
VH: DAELVKPGASVKISCKASGYTFTDHSIHWVQQKPEQGLEWIGYISPGNGNIKYNEKFKGKATLTADKSSSTAYMQLNSLTSEDSAVYFCKRSLGRGGPYYFDYWGQGTTVTVSS
VL: DIVLTQAAPSLPVTPGESVSISCRSSKSLLHSNGNTYLYWFLQRPGQSPQLLIYRMSNLASGVPDRFSGSGSGTAFTLRISRVEAEDVGVYYCMQHREYPVTFGSGPN
B4: anti-CAPRIN-1 antibody (o) (antibody, V domains shown)
VH: EVQLHQFGAELVKPGASVKISCKASGYTFTDYNMDWVKQSHGKSLEWIGDINPNYDSTSYNQKFKGKATLTVDKSSSTAYMELRSLTSEDTAVYYCARSRSYDYEGFAYWGQGTLVTVSA
VL: DIQMTQSPASLSASVGETVTITCRASGNIHNYLAWYQQKQGKSPQLLVYNAKTLADGVPSRFSGSGSGTQYSLKINSLQPEDFGSYYCQHFWSTLTFGAGTKLELKR
B5: anti-CAPRIN-1 antibody (z) (antibody, V domains shown)
VH: GPDLVKPGASVKISCKASGYSFTAYYMHWVKQSHGKSLEWIGRVNPNNGGTTYNQKFKGKAILTVDKSSSTAYMELRSLTFEDSAVYYCARRIYYGYFDYWGQGTTVTVSS
VL: AFFAVSLGQRATISCKASQSVDYDGDSYMNWYQQKPGQPPKLLIYVASNLESGVPARFSGSGSGTDFTLNIHPVEEEDAATYYCQQSNEDPYTFGGGTKLEIKQ
B6: anti-CAPRIN-1 antibody (af) (antibody, V domains shown)
VH: EVQLVESGGGLVQPGGSLRLSCAASGFSLSSHSLGWVRQAPGKGLEWIGDIRSGGSAYYANWAKGRFTISRDNSKNTLYLQMNSLRAEDTAVYYCTRTNGPSDLTNRLDLWGQGTLVTVSS
VL: QVLTQSPSSLSASVGDRVTINCQASQSLYNNENLAWFQQKPGKVPKRLIYGASTLASGVSSRFSGSGSGTEFTLTISSLQCEDFAIYYCLGEFSCGSADCFAFGGGTKVEIK
B7: anti-CAPRIN-1 antibody (ag) (antibody, V domains shown)
VH: B6 VH with Y94F
VL: B6 VL
B8: anti-CAPRIN-1 antibody (b) (antibody, V domains shown)
VH: B6 VH with V2Q, Q3S
VL: B6 VL
B9: anti-CAPRIN-1 antibody (ah) (antibody, V domains shown)
VH: B6 VH
VL: EQVLTQSPSSLSASVGDRVTINCQASQSLYNNENLAWFQQKPGKVPKRLIYGASTLASGVSSRFSGSGSGTEFTLTISNLQPEDFAIYYCLGEFSCGSADCFAFGGGTKVEIK
B10: anti-CAPRIN-1 antibody (ai) (antibody, V domains shown)
VH: B6 VH with Y94F
VL: B9 VL with Q2I, I87T
B11: anti-CAPRIN-1 antibody (aj) (antibody, V domains shown)
VH: B6 VH
VL: B9 VL with Q2I, I87T
B12: anti-CAPRIN-1 antibody (ak) (antibody, V domains shown)
VH: B6 VH with Y94F
VL: B9 VL
B13: anti-CAPRIN-1 antibody (a) (antibody, V domains shown)
VH: AVTLDESGGGLQMSRGGLSLVCKASGFDFSSYQMNWIRQAPGKGLEFVAAINKFGNSTGHGAAVKGRVTISRDNGQSTVRLQLNNLRAEDTAIYFCTKHAYGYCGSGTWCAAGEIDAWGHGTEVIVSS
VL: QAASTQPSSVSANPGETVEITCSGGGSYSYGWFQQKSPGSAPVTVIYYNNKRPSDIPSRFSGSKSGSTGTLTITGVQADDEAVYYCGSGDSTDTAVFGAGTTLTVLG
B14: anti-CAPRIN-1 antibody (c) (antibody, V domains shown)
VH: AVTLDESGGGLQTPGGGLSLVCKASGFTFSSFDMGWVRQAPGKGLEFVAQINDAGSRTWYATAVKGRATISRDNGQTTVRLQLNNLRAEDTGTYYCTRGSGYVGAGAIDAWGHGTEVIVS
VL: AALTQPSSVSANPGETVKITCSGGSGYYGWYQQQKSPGSAPVTVIYQNDKRPSDIPSRFSGSGSGSTNTLTITGVQAEDEAVYFCGRYDSTDSGIFGAGTTLTVL
B15: anti-CAPRIN-1 antibody (d) (antibody, V domains shown)
VH: QSLEESGGDLVKPGASLTLTCTASGFSFSGSYYMSWVRQAPGKGLEWIAYIYIGDGVTAYANWAKGRFTISKASSTTVTLQMTSLTAADTATYFCARGNKLWGPGTLVTVSS
VL: DVVMTQTPASVEAAVGGTVTIKCQASQSISSYLAWYQQKPGQPPKRLIYDASNLDSGVPSRFKGSGSGTDFTITISDLECADAATYYCQCTAVSSATIYGNAFGGGTEVVVK

Target: T1, human CAPRIN-1 protein expressed on cell membrane surfaces of human cancer cells (human, UniProt Q14444 2-709)
T1 construct: whole, on cells; Endogenous protein on human cancer cells; Flow cytometry was done without permeation of the cell membranes
T1 sequence (looked up): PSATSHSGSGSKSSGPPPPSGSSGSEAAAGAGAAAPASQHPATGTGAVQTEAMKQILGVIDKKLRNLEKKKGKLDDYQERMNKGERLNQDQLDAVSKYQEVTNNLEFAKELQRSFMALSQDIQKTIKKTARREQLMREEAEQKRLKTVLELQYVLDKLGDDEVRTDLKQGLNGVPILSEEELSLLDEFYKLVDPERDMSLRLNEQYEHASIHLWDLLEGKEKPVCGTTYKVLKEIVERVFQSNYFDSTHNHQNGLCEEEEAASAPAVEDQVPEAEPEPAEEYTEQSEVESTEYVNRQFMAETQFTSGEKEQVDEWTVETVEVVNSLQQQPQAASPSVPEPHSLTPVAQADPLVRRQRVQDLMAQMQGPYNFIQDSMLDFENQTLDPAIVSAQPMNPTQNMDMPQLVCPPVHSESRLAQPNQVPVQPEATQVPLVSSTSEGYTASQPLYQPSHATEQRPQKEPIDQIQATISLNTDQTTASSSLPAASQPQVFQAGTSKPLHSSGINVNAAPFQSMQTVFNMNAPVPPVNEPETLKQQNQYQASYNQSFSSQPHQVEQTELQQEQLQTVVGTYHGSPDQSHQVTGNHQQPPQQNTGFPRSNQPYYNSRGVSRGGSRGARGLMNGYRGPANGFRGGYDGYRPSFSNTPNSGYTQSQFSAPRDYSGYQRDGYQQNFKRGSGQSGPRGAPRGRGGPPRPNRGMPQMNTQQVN
Test: flow cytometry on cancer cells

Binding result, binds:
B1, B2, B3, B4, B5, B6, B7, B8, B9, B10, B11, B12, B13, B14, B15
